Values of other authors, collected in paper PMC2659627 (Bioconjugate chemistry, 2008).
DPr = 2,3-diaminopropanoyl

Experiments:
[1] = biological target: GRP-receptors; conditions: read-out: IC50 (binding affinity to GRP-receptors); human PC-3 cell line
[2] = test system: PC-3 cells; conditions: after 90 min incubation with PC-3 cells
[3] = test system: PC-3 prostate tumors
[4] = test system: CA20948 pancreas tumor

Substance	IC50 [1]	Internalization [2]	Uptake in normal pancreas	Uptake compared to DTPA-BBN[1-14] [3]	Uptake compared to DTPA-BBN[1-14] [4]
(DPr)-Ser-Ser-Ser-Gln-Trp-AlaVal-Gly-His-Leu-Met-(NH2) (DPr-SSSQWAVGHLM-NH2; also: Tc/Re tricarbonyl complex on DPr chelator)	~0.86 nM	80%	16 ± 1.3 ID/g		
DTPA-ACMpip-Tha^6-BAla^11-Tha^13-Nle^14-BBN[6-14]				1.3 times	two to three times higher
